The results in this text go back to US20150344570A1 (published 2015).

Experiment [1] addresses T1, FcγRIa extracellular domain with C-terminal His tag (human, UniProt P12314 16-292).
T1 construct: extracellular domain; also called FcgRI; 1a
The experiment can be described thus: SPR (Biacore); He/Con_1a divided by He/Con_2b (FcγRIa binding over FcγRIIb binding). The method, then:
(§1) The heterodimerized antibodies He Abs in which one of the H chains was introduced with an alteration were assayed for their binding activities to each activating FcγR and inhibitory FcγR according to the method described in Example 4. […] The activating FcγRs in FIGS. 26, 27, 28, and 29 are FcγRIa, FcγRIIa (R), FcγRIIa (H), and FcγRIIIa, respectively.
(§2) Analysis of interaction between objective antibody and the FcγR was carried out using Biacore T100 (GE Healthcare). HBS-EP+ (GE Healthcare) was used as the running buffer, and the measurement temperature was set to 25° C. Chips produced by immobilizing the antigen peptide by the amine coupling method to a Series S Sencor Chip CM5 (GE Healthcare), or alternatively, chips produced by allowing preliminarily biotinylated antigen peptides to interact with and immobilize onto a Series S Sensor Chip SA (certified) (GE Healthcare) were used. Antibodies of interest were captured onto an antigen peptide-immobilized chip, and allowed to interact to each FcγR diluted with running buffer. To regenerate and repeatedly use the chip, the antibodies captured on the chip were washed off by reacting 10 mM glycine-HCl, pH 1.5.

Experiment [2] addresses T1, FcγRIa extracellular domain with …. Kind of experiment: SPR (Biacore), antibody captured via antigen peptide, FcγR as analyte; relative binding. The method, then: as §1, §2
Experiment [3] deals with T2, FcγRIIb extracellular domain with C-terminal His tag (human, UniProt P31994 43-217).
T2 construct: extracellular domain; also called FcgRIIb; 2b
T2 sequence (looked up): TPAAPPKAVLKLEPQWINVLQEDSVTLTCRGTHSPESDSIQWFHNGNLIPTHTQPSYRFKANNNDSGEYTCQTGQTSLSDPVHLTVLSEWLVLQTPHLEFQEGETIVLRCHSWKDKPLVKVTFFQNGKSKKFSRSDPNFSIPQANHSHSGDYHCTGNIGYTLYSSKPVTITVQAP
The description is as above. The method, then: as §1, §2

T1 sequence (P12314 16-292): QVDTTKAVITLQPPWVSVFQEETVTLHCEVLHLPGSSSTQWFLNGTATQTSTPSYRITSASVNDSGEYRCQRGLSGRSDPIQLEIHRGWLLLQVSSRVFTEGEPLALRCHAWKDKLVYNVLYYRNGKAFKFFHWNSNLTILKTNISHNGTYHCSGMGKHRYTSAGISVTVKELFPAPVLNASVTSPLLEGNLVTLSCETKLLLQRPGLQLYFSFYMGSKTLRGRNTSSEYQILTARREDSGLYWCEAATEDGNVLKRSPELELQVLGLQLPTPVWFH

B1: GpH7-A5/GpH7-B3 variant Q295_07I/GpL16-k0 (antibody, human IgG1, kappa)
heavy 1: not shown
heavy 2: not shown
light: DIVMTQSPLSLPVTPGEPASISCQASESLVHSNRNTYLHWYLQKPGQSPQLLIYKVSNRFSGVPDRFSGSGSGTDFTLKISRVEAEDVGVYYCSQNTHVPPTFGQGTKVEIERTVAAPSVFIFPPSDEQLKSGTASVVCLLNNFYPREAKVQWKVDNALQSGNSQESVTEQDSKDSTYSLSSTLTLSKADYEKHKVYACEVTHQGLSSPVTKSFNRGEC
notes: Heterodimerized anti-glypican-3 IgG1; alteration only in the GpH7-B3 chain, EU numbering; also called He Ab
For the molecule B1, in experiment [1], the “He_1a/2b (Ia/IIb)” value worked out at 1.22 ratio. The He/Con_1a in experiment [2] is 103 % of GpH7-A5/GpH7-B3/GpL16-k0 (=100). The He/Con_2b in experiment [3] is 84.3 % of GpH7-A5/GpH7-B3/GpL16-k0 (=100).

B2: GpH7-A5/GpH7-B3 variant Q295_09D/GpL16-k0 (antibody, human IgG1, kappa)
heavy 1: not shown
heavy 2: not shown
light: DIVMTQSPLSLPVTPGEPASISCQASESLVHSNRNTYLHWYLQKPGQSPQLLIYKVSNRFSGVPDRFSGSGSGTDFTLKISRVEAEDVGVYYCSQNTHVPPTFGQGTKVEIERTVAAPSVFIFPPSDEQLKSGTASVVCLLNNFYPREAKVQWKVDNALQSGNSQESVTEQDSKDSTYSLSSTLTLSKADYEKHKVYACEVTHQGLSSPVTKSFNRGEC
notes: as for B1
With B2, the “He_1a/2b (Ia/IIb)” value in experiment [1] was 1.65 ratio. The He/Con_1a in experiment [2] is 100 % of GpH7-A5/GpH7-B3/GpL16-k0 (=100). Moreover, the He/Con_2b in experiment [3] was 60.8 % of GpH7-A5/GpH7-B3/GpL16-k0 (=100).

B3: GpH7-A5/GpH7-B3 variant D270_20W/GpL16-k0 (antibody, human IgG1, kappa)
heavy 1: not shown
heavy 2: not shown
light: DIVMTQSPLSLPVTPGEPASISCQASESLVHSNRNTYLHWYLQKPGQSPQLLIYKVSNRFSGVPDRFSGSGSGTDFTLKISRVEAEDVGVYYCSQNTHVPPTFGQGTKVEIERTVAAPSVFIFPPSDEQLKSGTASVVCLLNNFYPREAKVQWKVDNALQSGNSQESVTEQDSKDSTYSLSSTLTLSKADYEKHKVYACEVTHQGLSSPVTKSFNRGEC
notes: as for B1
For the molecule B3, the “He_1a/2b (Ia/IIb)” value in experiment [1] is 1.96 ratio. In experiment [2], the He/Con_1a is 68 % of GpH7-A5/GpH7-B3/GpL16-k0 (=100). Besides, in experiment [3], the He/Con_2b is 34.7 % of GpH7-A5/GpH7-B3/GpL16-k0 (=100).

B4: GpH7-A5/GpH7-B3 variant Q295_11K/GpL16-k0 (antibody, human IgG1, kappa)
heavy 1: not shown
heavy 2: not shown
light: DIVMTQSPLSLPVTPGEPASISCQASESLVHSNRNTYLHWYLQKPGQSPQLLIYKVSNRFSGVPDRFSGSGSGTDFTLKISRVEAEDVGVYYCSQNTHVPPTFGQGTKVEIERTVAAPSVFIFPPSDEQLKSGTASVVCLLNNFYPREAKVQWKVDNALQSGNSQESVTEQDSKDSTYSLSSTLTLSKADYEKHKVYACEVTHQGLSSPVTKSFNRGEC
notes: as for B1
On to B4, for which, in experiment [1], the “He_1a/2b (Ia/IIb)” value worked out at 1.44 ratio. Also, in experiment [2], the He/Con_1a was 101 % of GpH7-A5/GpH7-B3/GpL16-k0 (=100). Besides, in experiment [3], the He/Con_2b is 70.4 % of GpH7-A5/GpH7-B3/GpL16-k0 (=100).

B5: GpH7-A5/GpH7-B3 variant Q295_13S/GpL16-k0 (antibody, human IgG1, kappa)
heavy 1: not shown
heavy 2: not shown
light: DIVMTQSPLSLPVTPGEPASISCQASESLVHSNRNTYLHWYLQKPGQSPQLLIYKVSNRFSGVPDRFSGSGSGTDFTLKISRVEAEDVGVYYCSQNTHVPPTFGQGTKVEIERTVAAPSVFIFPPSDEQLKSGTASVVCLLNNFYPREAKVQWKVDNALQSGNSQESVTEQDSKDSTYSLSSTLTLSKADYEKHKVYACEVTHQGLSSPVTKSFNRGEC
notes: as for B1
As to B5, in experiment [1], the “He_1a/2b (Ia/IIb)” value amounted to 1.79 ratio. Moreover, the He/Con_1a in experiment [2] is 102 % of GpH7-A5/GpH7-B3/GpL16-k0 (=100). Besides, the He/Con_2b in experiment [3] is 56.9 % of GpH7-A5/GpH7-B3/GpL16-k0 (=100).

B6: GpH7-A5/GpH7-B3 variant Q295_04F/GpL16-k0 (antibody, human IgG1, kappa)
heavy 1: not shown
heavy 2: not shown
light: DIVMTQSPLSLPVTPGEPASISCQASESLVHSNRNTYLHWYLQKPGQSPQLLIYKVSNRFSGVPDRFSGSGSGTDFTLKISRVEAEDVGVYYCSQNTHVPPTFGQGTKVEIERTVAAPSVFIFPPSDEQLKSGTASVVCLLNNFYPREAKVQWKVDNALQSGNSQESVTEQDSKDSTYSLSSTLTLSKADYEKHKVYACEVTHQGLSSPVTKSFNRGEC
notes: as for B1
In the case of B6, the “He_1a/2b (Ia/IIb)” value in experiment [1] worked out at 1.58 ratio. The He/Con_1a in experiment [2] was 102 % of GpH7-A5/GpH7-B3/GpL16-k0 (=100). Further, the He/Con_2b in experiment [3] was 64.7 % of GpH7-A5/GpH7-B3/GpL16-k0 (=100).

B7: GpH7-A5/GpH7-B3 variant Q295_05P/GpL16-k0 (antibody, human IgG1, kappa)
heavy 1: not shown
heavy 2: not shown
light: DIVMTQSPLSLPVTPGEPASISCQASESLVHSNRNTYLHWYLQKPGQSPQLLIYKVSNRFSGVPDRFSGSGSGTDFTLKISRVEAEDVGVYYCSQNTHVPPTFGQGTKVEIERTVAAPSVFIFPPSDEQLKSGTASVVCLLNNFYPREAKVQWKVDNALQSGNSQESVTEQDSKDSTYSLSSTLTLSKADYEKHKVYACEVTHQGLSSPVTKSFNRGEC
notes: as for B1
As to B7, the “He_1a/2b (Ia/IIb)” value in experiment [1] is 1.53 ratio. In experiment [2], the He/Con_1a was 103 % of GpH7-A5/GpH7-B3/GpL16-k0 (=100). In addition, the He/Con_2b in experiment [3] is 67.5 % of GpH7-A5/GpH7-B3/GpL16-k0 (=100).

B8: GpH7-A5/GpH7-B3 variant Q295_15Y/GpL16-k0 (antibody, human IgG1, kappa)
heavy 1: not shown
heavy 2: not shown
light: DIVMTQSPLSLPVTPGEPASISCQASESLVHSNRNTYLHWYLQKPGQSPQLLIYKVSNRFSGVPDRFSGSGSGTDFTLKISRVEAEDVGVYYCSQNTHVPPTFGQGTKVEIERTVAAPSVFIFPPSDEQLKSGTASVVCLLNNFYPREAKVQWKVDNALQSGNSQESVTEQDSKDSTYSLSSTLTLSKADYEKHKVYACEVTHQGLSSPVTKSFNRGEC
notes: as for B1
For the molecule B8, the “He_1a/2b (Ia/IIb)” value in experiment [1] came to 1.56 ratio. The He/Con_1a in experiment [2] is 102 % of GpH7-A5/GpH7-B3/GpL16-k0 (=100). Moreover, the He/Con_2b in experiment [3] was 65.4 % of GpH7-A5/GpH7-B3/GpL16-k0 (=100).
